From patent US20100304465 come the findings set out here.

In this data set the test system is delta-plasminogen.
delta-plasminogen, sequence (chain, as listed by the source mutant): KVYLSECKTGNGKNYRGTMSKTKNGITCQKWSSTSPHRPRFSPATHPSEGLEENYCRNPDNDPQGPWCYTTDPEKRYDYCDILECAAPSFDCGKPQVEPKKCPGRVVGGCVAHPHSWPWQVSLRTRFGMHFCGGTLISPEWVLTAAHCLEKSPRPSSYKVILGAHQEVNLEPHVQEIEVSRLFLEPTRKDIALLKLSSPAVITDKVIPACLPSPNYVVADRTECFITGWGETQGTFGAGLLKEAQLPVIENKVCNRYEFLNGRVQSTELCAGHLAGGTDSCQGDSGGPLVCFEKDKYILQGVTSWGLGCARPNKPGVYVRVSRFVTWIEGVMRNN

Turning to urokinase, the “conversion of one-chain delta-plasminogen into two-chain delta-plasmin (reduced SDS-PAGE)” value is given as “delta-plasminogen indeed can be activated by all three plasminogen activators”.
